Data published in patent US20080107658A1 (AstraZeneca / MedImmune, published 2008).

Target: T1, rat nerve growth factor (beta-NGF) (rat, UniProt P25427 122-241)
T1 construct: mature; also called rat NGF; recombinant rat β-NGF
Experiment: purified scFv, inhibition of NGF binding to coated TrkA fusion protein (DELFIA)
Description: Crude scFv samples were prepared from periplasmic lysates of E. coli TG-1 bacteria transfected with selected phage for evaluation in the binding assay. […] Assay plates were washed with PBS/Tween 20, blocked for 2 h using 1% bovine serum albumin (BSA) in PBS, and washed again. […] Samples were transferred in a volume of 100 μl to assay plates and incubated for 60 min at room temperature. […] Briefly, plates were washed and 100 μl streptavidin Eu³⁺ added to each well, diluted 1/1000 in DELFIA assay buffer. Plates were incubated for a further 60 min at room temperature and washed with DELFIA wash buffer, followed by addition of 100 μl DELFIA enhancement solution to each well. Plates were read using a Wallac Victor fluorimetric plate reader (excitation wavelength 314 nm; emission wavelength 615 nm).
Purified scFv preparations were prepared as described in Example 3 of WO01/66754. Protein concentrations of purified scFv preparations were determined using the BCA method (Pierce).

Row | binding result | Binder
1 | binds | 1033B2 scFv (scFv, V domains shown, purified scFv) VH: QVQLQQSGAEVKKPGSSVKLSCKASGGTFSSFGISWVRQAPGQGLEWLGRIIPFLGPADYAQKFQGRVTITADESRSTAYMELSSLTSEDTAVYFCARSFYDILTGYYEGVFYYYMDVWGQGTMVTVSS VL: QSVLIQPASVSGSPGQSITISCTGTSSDVGGYNYVSWYQQHPGKAPKLMIYEGSKRPSGVSNRFSGSKSGNTASLTISGLQAEDEADYYCSSYTTRSTRVFGGGTKLTVL
2 | binds | 1057F11 scFv (scFv, V domains shown, purified scFv) VH: EVQLVETGGGVVQPGTSLRLSCAASGFTFSSHGMHWVRQAPGQGLEWVAHAWSDGSNKYYADSLKGRFTISRDNSRNTLYLQMNSLRAEDTAVYYCARDGQQLANYAMDVWGRGTTVTVSS VL: DIQMTQSPSFLSASVGDRVTITCRASQGINSYLAWYQQIPGKAPNLLIYAASTLQSGVPSRFSGSGSGTEFTLTISSLQPEDFATYYCQQLNTYPFTFGPGTKVEIK
